Source: paper PMC3038193

Molecular target: ApoE2 (C112S, C158S, A102C), labeled with Alexa488 or Alexa546 at position 102
Assay: FRET or BRET

Substance: ApoE2 (C112S, C158S, A102C), labeled with Alexa488 or Alexa546 at position 102 (natural protein)
- k−1 (dissociation, dimer to monomers): 0.00066 s⁻¹
- k−2 (dissociation, tetramer to dimers): 0.0036 s⁻¹
